Assay results published in patent publication US20240400663A1 (Regeneron, published 2024).

B1: H1H29187P2 (antibody, V domains shown)
VH: QVQLVESGGGVVQPGRFLRLSCAASGFTFSNSGMHWVRQAPGKGLEWVAGIWHDGSYKYYVDSVKGRFTISRDNSKNTLFLQMNSLRAEDTAVYYCARDDYYASGTSVDVWGQGTTVTVSS
VL: not shown
B2: H1H29147P2 (antibody, V domains shown)
VH: QVQLVQSGAEVKNPGSSVKVSCKASGGTFSSYTINWVRQAPGQGLEWMGGIIPLYGTANYAQKFQARVTISTDESTNTAYMELSNLRFEDTAVYFCASTLELRAFDAFDIWGQGTMVTVSS
VL: not shown
B3: H1H29143P (antibody, V domains shown)
VH: EVQLVESGGGLVQPGGSLRLSCAASGFTFNNYAMSWVRQAPGRGLEWVSAISGSGDSTYYSDSVKGRFTISRDNSKNTLYLQMNSLRAEDTAVYYCAKDQGLYYYGSGSFDYWGQGTLVTVSS
VL: not shown
B4: H1H29104P (antibody, V domains shown)
VH: EVQLVESGGGLVQPGRSLRLSCAASGFRFDDYAMHWVRQAPGKGLEWVSGINWNSGGKGYADSVQGRFTISRDNAKNSLYLQMNSLRTEDTALYYCAKDRGIAARLLSRDAFDMWGQGTMVTVSS
VL: DIQLTQSPSFLSASVGDRVTITCWASQDVSSYLAWYQQKPGKSPKLLIFAASTLQGGIPSRFSGSGSGTEFTLTISSLRPEDFATYYCQHLNTYPYTFGQGTKLEIKR
B5: H1H29127P (antibody, V domains shown)
VH: QVQLVESGGGVVQPGRSLRLSCAASGFTFSSYGMHWVRQAPGKGLEWVAAIWYDGSNKYYADSVKGRFTISRDNSKNTLYLQMNSLRAEDTAVYFCARGEHYYGSGPFDPWGQGTLVTVSS
VL: DIQMTQSPSSLSASVGDRVTITCRASQSISNYLNWYQQKPGKAPKLLIFAASSLQSGVPSRFSGSGSGTDFTLTISSLQPEDFATYYCQQSYSSPLTFGGGTKVEIKR
B6: H1H29209P2 (antibody, V domains shown)
VH: QLQLQESGPGLVKPSETLSLTCTVSGGSISSRSHYWGWIRQPPGKGLEWIGSIYYSGSTYYNPSLKSRVTISVDTSKNQFSLKLSSVTAADTAVYYCARLGWYAEEAFEIWGQGTMVTVSS
VL: not shown
B7: H1H29214P2 (antibody, V domains shown)
VH: QLQLQESGPGLVKPSETLSLTCTVSGGSISSSSYYWGWIRQPPGKGLEWIGSIYYSGSTYYNPSLKSRVTISVDTSKNQFSLKLSSVTAADTAVYYCARQGRWERENFDYWGQGTLVTVSS
VL: not shown
B8: H1H29109P (antibody, V domains shown)
VH: EVQLVESGGGLVQPGRSLRLSCAVSGFTFDDYAMHWVRQAPGKGLEWVSGISWNSGDIDYADSVKGRFTISRDNAKNSLYLQMNSLRAEDTALYYCAKDTLSGTGTTWYYFDYWGQGTLVTVSS
VL: DIQLTQSPSFLSASVGDRVTITCWASQGISSYLIWYQQKPGKAPKLLIYAASTLQSGVPSRFSGSGSGTEFTLTISSLQPEDFATYYCQQVNSYPLTFGGGTKVEIKR
B9: H1H29106P (antibody, V domains shown)
VH: QVQLVESGGGVVQSGRSLRLSCAASSFTFSSYGMHWVRQSPGKGLEWVAVISYDGSNKYYGDFVRGRFTISRDNSKNTLYLQMNSLRAEDTAMYYCAREVRRYYYYGMDVWGQGTTVTVSS
VL: not shown
B10: H1H29215P2 (antibody, V domains shown)
VH: QVQLQQWGAGLLKPSETLSLTCAVSDESFSDYYWTWIRQPPGKGLEWIGEITHSGSTHYNPSLKSRVTLSVDTSKNHFSLSLNSVTAADTAIYYCARGGDYGGLLDYWGQGTLVTVSS
VL: not shown

These binders were tested against T1, PfRH5 of Plasmodium falciparum strain 7G8 (on live parasites) (Plasmodium falciparum) (assay: cell-based or functional assay).
With B1 the “Max growth inhibition (%) 7G8, no chloroquine” value was 49.3%.
For B2, the “Max growth inhibition (%) 7G8, no chloroquine” value was 47.3%.

Each binder was assayed against T2, PfRH5 of Plasmodium falciparum strain FCR-1/FVO (on live parasites) (Plasmodium falciparum) (assay: cell-based or functional assay).
With B1 the “Percent Maximum Growth Inhibition, FCR-1/FVO, mAb (6.67 µM) + AHIS (10%)” value was 89.4%, the “Percent Maximum Growth Inhibition, FCR-1/FVO, mAb (6.67 µM) + ANS (10%)” value was 80.1% and the “Percent Maximum Growth Inhibition, FCR-1/FVO, mAb (6.67 µM) + HHIS (10%)” value was 85.4%. For the same binder, the “Percent Maximum Growth Inhibition, FCR-1/FVO, mAb (6.67 µM) + HNS (10%)” value was 85.9% and the “Percent Maximum Growth Inhibition, FCR-1/FVO, mAb (6.67 µM) + No serum” value was 85.3%.
B2 was tested, and the “Percent Maximum Growth Inhibition, FCR-1/FVO, mAb (6.67 µM) + AHIS (10%)” value was 86.2%, the “Percent Maximum Growth Inhibition, FCR-1/FVO, mAb (6.67 µM) + ANS (10%)” value was 80.3% and the “Percent Maximum Growth Inhibition, FCR-1/FVO, mAb (6.67 µM) + HHIS (10%)” value was 83.4%. The “Percent Maximum Growth Inhibition, FCR-1/FVO, mAb (6.67 µM) + HNS (10%)” value was 85.6% and the “Percent Maximum Growth Inhibition, FCR-1/FVO, mAb (6.67 µM) + No serum” value was 84.1%.

The binders below were run against T3, PfRH5 of Plasmodium falciparum strain Dd2 (on live parasites) (Plasmodium falciparum) (assay: cell-based or functional assay).
With B3 the “Maximum growth inhibition (%) Dd2” value was 56%.
In the case of B4, the “Maximum growth inhibition (%) Dd2” value is reported as 54.1%.
In the case of B5, the “Maximum growth inhibition (%) Dd2” value is reported as 56.9%.

These binders were tested against PfRH5 of Plasmodium falciparum strain W2-mef (on live parasites) (Plasmodium falciparum) (assay: cell-based or functional assay).
B6 was tested, and the “Max growth inhibition (%) W2-mef” value was 39.6%.
For B7, the “Max growth inhibition (%) W2-mef” value was 52.7%.
In the case of B8, the “Max growth inhibition (%) W2-mef” value is reported as 37.9%.
For B1, the “Max growth inhibition (%) W2-mef” value was 67.3%.
In the case of B3, the “Max growth inhibition (%) W2-mef” value is reported as 58.3%.
For B9, the “Max growth inhibition (%) W2-mef” value was 48.9%.
For B4, the “Max growth inhibition (%) W2-mef” value was 47.4%.
B2 was tested, and the “Max growth inhibition (%) W2-mef” value was 64.7%.
With B5 the “Max growth inhibition (%) W2-mef” value was 53.6%.
In the case of B10, the “Max growth inhibition (%) W2-mef” value is reported as 37.2%.

Molecular target: T3, PfRH5 of Plasmodium falciparum strain …
Assay: cell-based or functional assay
Remark: another data set of the same source
For B6, the “Max growth inhibition (%) Dd2” value was 38.1%.
With B7 the “Max growth inhibition (%) Dd2” value was 47.2%.
For B8, the “Max growth inhibition (%) Dd2” value was 42%.
For B1, the “Max growth inhibition (%) Dd2” value was 66%.
In the case of B3, the “Max growth inhibition (%) Dd2” value is reported as 62.7%.
With B9 the “Max growth inhibition (%) Dd2” value was 54%.
For B4, the “Max growth inhibition (%) Dd2” value was 61.3%.
B2 was tested, and the “Max growth inhibition (%) Dd2” value was 65.3%.
B5 was tested, and the “Max growth inhibition (%) Dd2” value was 64.7%.
For B10, the “Max growth inhibition (%) Dd2” value was 22.8%.

The binders below were run against PfRH5 of Plasmodium falciparum strain RF7 (on live parasites) (Plasmodium falciparum) (assay: cell-based or functional assay).
With B6 the “Max growth inhibition (%) RF7” value was 11.9%.
B7 was tested, and the “Max growth inhibition (%) RF7” value was 11.2%.
B8 was tested, and the “Max growth inhibition (%) RF7” value was 8.24%.
In the case of B1, the “Max growth inhibition (%) RF7” value is reported as 32.7%.
B9 was tested, and the “Max growth inhibition (%) RF7” value was 27.4%.
B4 was tested, and the “Max growth inhibition (%) RF7” value was 23.6%.
With B2 the “Max growth inhibition (%) RF7” value was 31.4%.
In the case of B5, the “Max growth inhibition (%) RF7” value is reported as 25.7%.
For B10, the “Max growth inhibition (%) RF7” value was 11.3%.

The binders below were run against PfRH5 of Plasmodium falciparum strain Cam3.II (on live parasites) (Plasmodium falciparum) (assay: cell-based or functional assay).
For B6, the “Max growth inhibition (%) Cam3.II” value was 47.3%.
B7 was tested, and the “Max growth inhibition (%) Cam3.II” value was 46.7%.
In the case of B8, the “Max growth inhibition (%) Cam3.II” value is reported as 35.9%.
B1 was tested, and the “Max growth inhibition (%) Cam3.II” value was 49.2%.
For B3, the “Max growth inhibition (%) Cam3.II” value was 53.2%.
For B9, the “Max growth inhibition (%) Cam3.II” value was 51.7%.
With B4 the “Max growth inhibition (%) Cam3.II” value was 50%.
B2 was tested, and the “Max growth inhibition (%) Cam3.II” value was 51.9%.
In the case of B5, the “Max growth inhibition (%) Cam3.II” value is reported as 47%.
B10 was tested, and the “Max growth inhibition (%) Cam3.II” value was 27.2%.

Molecular target: T1, PfRH5 of Plasmodium falciparum strain …
Assay: cell-based or functional assay
Remark: another data set of the same source
In the case of B6, the “Max growth inhibition (%) 7G8” value is reported as 49.9%.
B7 was tested, and the “Max growth inhibition (%) 7G8” value was 56.7%.
In the case of B8, the “Max growth inhibition (%) 7G8” value is reported as 39%.
B3 was tested, and the “Max growth inhibition (%) 7G8” value was 61.9%.
In the case of B9, the “Max growth inhibition (%) 7G8” value is reported as 55.5%.
In the case of B4, the “Max growth inhibition (%) 7G8” value is reported as 35.2%.
With B2 the “Max growth inhibition (%) 7G8” value was 65.2%.
B5 was tested, and the “Max growth inhibition (%) 7G8” value was 61.2%.
For B10, the “Max growth inhibition (%) 7G8” value was 33.2%.

Each binder was assayed against PfRH5 of Plasmodium falciparum strain HB3 (on live parasites) (Plasmodium falciparum) (assay: cell-based or functional assay).
In the case of B6, the “Max growth inhibition (%) HB3” value is reported as 52.4%.
In the case of B7, the “Max growth inhibition (%) HB3” value is reported as 59.1%.
In the case of B8, the “Max growth inhibition (%) HB3” value is reported as 32.2%.
With B1 the “Max growth inhibition (%) HB3” value was 63.9%.
With B3 the “Max growth inhibition (%) HB3” value was 60.9%.
B9 was tested, and the “Max growth inhibition (%) HB3” value was 48.4%.
B4 was tested, and the “Max growth inhibition (%) HB3” value was 39.8%.
B2 was tested, and the “Max growth inhibition (%) HB3” value was 64.8%.
With B5 the “Max growth inhibition (%) HB3” value was 59.4%.
B10 was tested, and the “Max growth inhibition (%) HB3” value was 30.1%.

Molecular target: T2, PfRH5 of Plasmodium falciparum strain …
Assay: cell-based or functional assay
Remark: another data set of the same source
In the case of B6, the “Max growth inhibition (%) FCR-1/FVO” value is reported as 19.2%.
With B7 the “Max growth inhibition (%) FCR-1/FVO” value was 13.1%.
With B8 the “Max growth inhibition (%) FCR-1/FVO” value was 56.7%.
With B1 the “Max growth inhibition (%) FCR-1/FVO” value was 72.2%.
In the case of B3, the “Max growth inhibition (%) FCR-1/FVO” value is reported as 67.2%.
In the case of B9, the “Max growth inhibition (%) FCR-1/FVO” value is reported as 54.3%.
In the case of B4, the “Max growth inhibition (%) FCR-1/FVO” value is reported as 67.4%.
B2 was tested, and the “Max growth inhibition (%) FCR-1/FVO” value was 70.3%.
B5 was tested, and the “Max growth inhibition (%) FCR-1/FVO” value was 61.1%.
B10 was tested, and the “Max growth inhibition (%) FCR-1/FVO” value was 54%.

Each binder was assayed against PfRH5 of Plasmodium falciparum strain D10 (on live parasites) (Plasmodium falciparum) (assay: cell-based or functional assay).
B6 was tested, and the “Max growth inhibition (%) D10” value was 72.7%.
B7 was tested, and the “Max growth inhibition (%) D10” value was 76.5%.
For B8, the “Max growth inhibition (%) D10” value was 44.8%.
B1 was tested, and the “Max growth inhibition (%) D10” value was 79.6%.
B3 was tested, and the “Max growth inhibition (%) D10” value was 79.4%.
For B9, the “Max growth inhibition (%) D10” value was 74.9%.
B4 was tested, and the “Max growth inhibition (%) D10” value was 55.7%.
With B2 the “Max growth inhibition (%) D10” value was 81.4%.
With B5 the “Max growth inhibition (%) D10” value was 74.4%.
With B10 the “Max growth inhibition (%) D10” value was 35.8%.
